Molecular target: T1, SARS-CoV-2 nsp12 (RNA-dependent RNA polymerase with N-terminal NiRAN domain) (SARS-CoV-2, UniProt P0DTD1)
T1 construct: also called WT nsp12; RdRp
Assay: cryo-EM structure
Conditions: both partners purified

B1: SARS-CoV-2 nsp9 (native N terminus) (natural protein)
chain: NNELSPVALRQMSCAAGTTQTACTDDNALAYYNTTKGGRFVLALLSDLQDLKWARFPKSDGTGTIYTELEPPCRFVTDTPKGPKVKYLYFIKGLNNLNRGMVLGSLAATVRLQ
notes: also called native nsp9
B1: binds.

— article PMC9492545 (Nature, 2022)
